Measured values published in patent US20250388704A1 (Xencor, published 2025).

Columns and labels:
[1] = biological target: T1, CD28 antigen used for the affinity determinations (human, UniProt P10747 19-152, limits assumed); assay: Octet (BLI), apparent dissociation constant (KDapp) of the bivalent mAb for CD28
T1 construct: Octet/BLI is described only for the bivalent mAbs

[2] = biological target: T2, human PSMA on the surface of prostate cancer cell lines (C42B / C42B-NLR, 22Rv1 / 22Rv1-NLR, PSMA-transfected … (human, UniProt Q04609 1-750)); assay: flow cytometry on C42B-NLR (PSMA hi) cells, 30 min at 37 degrees, detection with anti-human-Ig-FITC
T2 construct: whole, on cells; also called Prostate Specific Membrane Antigen

[3] = biological target: T2, human PSMA on the surface of prostate …; assay: binding to C4-2B (C42B, PSMA^hi) cells, MFI against concentration, least squares fit
[4] = biological target: T1, CD28 antigen used for the affinity …; assay: CD28 binding affinity of the scFv arm (monovalent, scFv in 1+1 Fab-scFv-Fc bsAb, FIG. 20); method not stated

B1: XENP28428 (antibody, V domains shown)
VH: EVQLLESGGGLVQPGGSLRLSCAASGFTFSSYAMSWVRQAPGKGLEWVSTISGSGDSTYYADSVKGRFTISRDNSKNTLYLQMNSLRAEDTAVYYCAKSGPGLRQVGFDYWGQGTLVTVSS
VL: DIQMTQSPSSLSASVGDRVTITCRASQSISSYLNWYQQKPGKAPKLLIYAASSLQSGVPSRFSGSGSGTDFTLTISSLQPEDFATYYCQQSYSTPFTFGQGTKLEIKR
notes: Bivalent IgG1 mAb with Fc gamma R ablation variants, made in HEK293E; also called anti-CD28 mAb based on clone 1A7; parental anti-CD28 mAb 1A7; copies: 2 + 2
**Q.** Which Kd [1] does the source give for B1 here?
**A.** The Kd was 14.5 nM.

B2: PSMA x CD28 bsAb with D01v2 PSMA binding domain and 1A7_H1_L1.71 CD28 binding domain (Platform X) (bispecific antibody)
heavy: EVQLVESGGDLVQPGGSLRLSCAASGFTFNNYNMNWVRQAPGKGLEWVSHISTSSSNKYYADSVKGRFSISRDIAKNSMYLQMNSLRDEDTAVYYCAREGVGADYGDYYYYGMDVWGQGTTVTVSSASTKGPSVFPLAPSSKSTSGGTAALGCLVKDYFPEPVTVSWNSGALTSGVHTFPAVLQSSGLYSLSSVVTVPSSSLGTQTYICNVNHKPSDTKVDKKVEPKSCDKTHTCPPCPAPPVAGPSVFLFPPKPKDTLMISRTPEVTCVVVDVKHEDPEVKFNWYVDGVEVHNAKTKPREEEYNSTYRVVSVLTVLHQDWLNGKEYKCKVSNKALPAPIEKTISKAKGQPREPQVYTLPPSREEMTKNQVSLTCDVSGFYPSDIAVEWESDGQPENNYKTTPPVLDSDGSFFLYSKLTVDKSRWEQGDVFSCSVMHEALHNHYTQKSLSLSPGK
scFv-Fc: not shown
light: QSVLTQPASVSGSPGQSITISCTGTSSDVGGYNYVSWYQQHPGKAPKLMIYEVSNRPSGVSNRFSGSKSGNTASLTISGLQAEDEADYYCSSYTSSYTYVFGTGTKLTVLGQPKAAPSVTLFPPSSEELQANKATLVCLISDFYPGAVTVAWKADSSPVKAGVETTTPSKQSNNKYAASSYLSLTPEQWKSHRSYSCQVTHEGSTVEKTVAPTECS
notes: D01v2 is D01 with the degradation liabilities removed
**Q.** Does B2 bind [2]?
**A.** Result: binds

B3: PSMA x CD28 bsAb with D01 PSMA binding domain and 1A7_H1_L1.71 CD28 binding domain (Platform X) (bispecific antibody)
heavy: EVQLVESGGDLVQPGGSLRLSCAASGFTFNNYNMNWVRQAPGKGLEWVSHISTSSSNKYYADSVKGRFSISRDIAKNSMYLQMNSLRDEDTAVYYCARDGVGADYGDYYYYGMDVWGQGTTVTVSSASTKGPSVFPLAPSSKSTSGGTAALGCLVKDYFPEPVTVSWNSGALTSGVHTFPAVLQSSGLYSLSSVVTVPSSSLGTQTYICNVNHKPSDTKVDKKVEPKSCDKTHTCPPCPAPPVAGPSVFLFPPKPKDTLMISRTPEVTCVVVDVKHEDPEVKFNWYVDGVEVHNAKTKPREEEYNSTYRVVSVLTVLHQDWLNGKEYKCKVSNKALPAPIEKTISKAKGQPREPQVYTLPPSREEMTKNQVSLTCDVSGFYPSDIAVEWESDGQPENNYKTTPPVLDSDGSFFLYSKLTVDKSRWEQGDVFSCSVMHEALHNHYTQKSLSLSPGK
scFv-Fc: not shown
light: QSVLTQPASVSGSPGQSITISCTGTSSDVGGYNYVSWYQQHPGKAPKLMIYEVSNRPSGVSNRFSGSKSGNTASLTISGLQAEDEADYYCSSYTSSYTYVFGTGTKLTVLGQPKAAPSVTLFPPSSEELQANKATLVCLISDFYPGAVTVAWKADSSPVKAGVETTTPSKQSNNKYAASSYLSLTPEQWKSHRSYSCQVTHEGSTVEKTVAPTECS
**Q.** Does B3 bind [2]?
**A.** Result: binds

B4: PSMA x CD28 bsAb with A11 PSMA binding domain and 1A7_H1_L1.71 CD28 binding domain (Platform X) (bispecific antibody)
heavy: QVQLQESGGDVVQPGRSLRLSCAASGFSFSGYGLHWVRQAPGRGLEWVTLISYDGSNKYYADSVKGRFTISRDNSKNTLYLQMNSLRAEDTAVYYCAKTTVSDPYYYGMDVWGQGTTVTVSSASTKGPSVFPLAPSSKSTSGGTAALGCLVKDYFPEPVTVSWNSGALTSGVHTFPAVLQSSGLYSLSSVVTVPSSSLGTQTYICNVNHKPSDTKVDKKVEPKSCDKTHTCPPCPAPPVAGPSVFLFPPKPKDTLMISRTPEVTCVVVDVKHEDPEVKFNWYVDGVEVHNAKTKPREEEYNSTYRVVSVLTVLHQDWLNGKEYKCKVSNKALPAPIEKTISKAKGQPREPQVYTLPPSREEMTKNQVSLTCDVSGFYPSDIAVEWESDGQPENNYKTTPPVLDSDGSFFLYSKLTVDKSRWEQGDVFSCSVMHEALHNHYTQKSLSLSPGK
scFv-Fc: not shown
light: SYELTQPPSVSVAPGQTARITCGGNNIGSKSVHWYQQKPGQAPVLVVYDDSDRPSGIPERFSGTNSGNTATLTISRAEAGDEADYYCQVWDSSSDHVVFGGGTKLTVLGQPKAAPSVTLFPPSSEELQANKATLVCLISDFYPGAVTVAWKADSSPVKAGVETTTPSKQSNNKYAASSYLSLTPEQWKSHRSYSCQVTHEGSTVEKTVAPTECS
**Q.** Does B4 bind [2]?
**A.** Result: binds

B5: XENP38934 PSMA (F02) x CD28 (180nM) (bispecific antibody)
heavy: EVQLLESGPGLVKPSETLSLTCTVSGGSIISYYWSWIRQPAGKGLEWIGRIYSSGSTNYNPSLKSRVTMSVDTSKNQFSLKLSSVTAADTAVYYCAKVGVWPGAFDIWGQGTMVTVSSASTKGPSVFPLAPSSKSTSGGTAALGCLVKDYFPEPVTVSWNSGALTSGVHTFPAVLQSSGLYSLSSVVTVPSSSLGTQTYICNVNHKPSDTKVDKKVEPKSCDKTHTCPPCPAPPVAGPSVFLFPPKPKDTLMISRTPEVTCVVVDVKHEDPEVKFNWYVDGVEVHNAKTKPREEEYNSTYRVVSVLTVLHQDWLNGKEYKCKVSNKALPAPIEKTISKAKGQPREPQVYTLPPSREEMTKNQVSLTCDVSGFYPSDIAVEWESDGQPENNYKTTPPVLDSDGSFFLYSKLTVDKSRWEQGDVFSCSVMHEALHNHYTQKSLSLSPGK
scFv-Fc: not shown
light: not shown
notes: copies: 1 + 1 + 1
**Q.** Does B5 bind [2]?
**A.** Result: binds

B6: XENP38938 PSMA (F07) x CD28 (180nM) (bispecific antibody)
heavy: not shown
scFv-Fc: not shown
light: SYELTQPPSVSVAPGQTARITCGGNNIGSKSVHWYQQKPGQAPVLVVYDDSDRPSGIPERFSGSNSGNTATLTISRVEAGDEADYYCQVWDSSTDHVVFGGGTKLTVLGQPKAAPSVTLFPPSSEELQANKATLVCLISDFYPGAVTVAWKADSSPVKAGVETTTPSKQSNNKYAASSYLSLTPEQWKSHRSYSCQVTHEGSTVEKTVAPTECS
notes: copies: 1 + 1 + 1
**Q.** Does B6 bind [2]?
**A.** Result: binds

B7: XENP39234 PSMA (A10v2) x CD28 (37 nM) (bispecific antibody)
heavy: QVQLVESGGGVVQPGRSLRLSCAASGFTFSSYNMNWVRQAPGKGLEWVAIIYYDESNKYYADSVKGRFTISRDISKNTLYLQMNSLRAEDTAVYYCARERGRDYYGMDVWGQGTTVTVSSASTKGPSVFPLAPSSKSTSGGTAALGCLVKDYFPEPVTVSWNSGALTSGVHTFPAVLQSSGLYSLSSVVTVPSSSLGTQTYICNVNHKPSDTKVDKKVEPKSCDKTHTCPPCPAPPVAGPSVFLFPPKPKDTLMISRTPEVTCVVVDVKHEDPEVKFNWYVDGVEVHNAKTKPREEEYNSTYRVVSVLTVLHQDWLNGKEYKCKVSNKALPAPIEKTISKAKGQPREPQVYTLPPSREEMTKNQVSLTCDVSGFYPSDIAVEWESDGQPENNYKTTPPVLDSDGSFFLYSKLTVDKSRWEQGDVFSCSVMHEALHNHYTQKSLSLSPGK
scFv-Fc: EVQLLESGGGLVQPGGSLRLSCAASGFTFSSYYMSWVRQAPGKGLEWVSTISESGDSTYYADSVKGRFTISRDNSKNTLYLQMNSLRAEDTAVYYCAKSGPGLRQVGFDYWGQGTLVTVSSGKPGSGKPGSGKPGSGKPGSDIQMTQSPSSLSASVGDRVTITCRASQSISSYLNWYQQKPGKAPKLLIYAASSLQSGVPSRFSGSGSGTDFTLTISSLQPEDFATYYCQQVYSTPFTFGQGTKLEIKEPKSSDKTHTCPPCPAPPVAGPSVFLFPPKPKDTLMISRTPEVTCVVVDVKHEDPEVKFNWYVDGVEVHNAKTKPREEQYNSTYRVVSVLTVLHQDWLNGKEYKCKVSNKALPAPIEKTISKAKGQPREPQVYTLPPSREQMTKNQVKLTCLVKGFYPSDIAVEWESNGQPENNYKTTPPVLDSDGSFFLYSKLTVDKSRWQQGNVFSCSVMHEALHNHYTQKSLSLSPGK
light: SYELMQPPSVSVSPGQTARITCSGDALPKQYAYWYQQKPGQAPVLVIYKDSERPSGIPVRFSGSSSGTTVTLTITGVQAEDEADYYCQSADSSGTYVFGTGTKVTVLGQPKAAPSVTLFPPSSEELQANKATLVCLISDFYPGAVTVAWKADSSPVKAGVETTTPSKQSNNKYAASSYLSLTPEQWKSHRSYSCQVTHEGSTVEKTVAPTECS
notes: Member of group m19
**Q.** B7 was tested. Which “EC50 (read off the curve)” value [3] did it give?
**A.** The value was ~3 nM.

B8: XENP39233 PSMA (A10v2) x CD28 (96 nM) (bispecific antibody)
heavy: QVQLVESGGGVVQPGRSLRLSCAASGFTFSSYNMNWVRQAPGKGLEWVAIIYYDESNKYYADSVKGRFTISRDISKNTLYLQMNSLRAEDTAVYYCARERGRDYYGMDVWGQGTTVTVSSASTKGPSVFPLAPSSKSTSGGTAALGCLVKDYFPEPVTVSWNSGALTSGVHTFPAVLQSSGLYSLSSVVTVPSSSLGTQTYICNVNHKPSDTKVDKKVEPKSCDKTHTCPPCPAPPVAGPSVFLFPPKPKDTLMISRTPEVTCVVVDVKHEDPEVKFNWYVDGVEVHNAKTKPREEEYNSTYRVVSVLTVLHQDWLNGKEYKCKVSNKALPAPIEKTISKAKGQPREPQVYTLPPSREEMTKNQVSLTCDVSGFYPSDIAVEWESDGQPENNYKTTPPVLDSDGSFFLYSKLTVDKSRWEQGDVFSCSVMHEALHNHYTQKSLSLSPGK
scFv-Fc: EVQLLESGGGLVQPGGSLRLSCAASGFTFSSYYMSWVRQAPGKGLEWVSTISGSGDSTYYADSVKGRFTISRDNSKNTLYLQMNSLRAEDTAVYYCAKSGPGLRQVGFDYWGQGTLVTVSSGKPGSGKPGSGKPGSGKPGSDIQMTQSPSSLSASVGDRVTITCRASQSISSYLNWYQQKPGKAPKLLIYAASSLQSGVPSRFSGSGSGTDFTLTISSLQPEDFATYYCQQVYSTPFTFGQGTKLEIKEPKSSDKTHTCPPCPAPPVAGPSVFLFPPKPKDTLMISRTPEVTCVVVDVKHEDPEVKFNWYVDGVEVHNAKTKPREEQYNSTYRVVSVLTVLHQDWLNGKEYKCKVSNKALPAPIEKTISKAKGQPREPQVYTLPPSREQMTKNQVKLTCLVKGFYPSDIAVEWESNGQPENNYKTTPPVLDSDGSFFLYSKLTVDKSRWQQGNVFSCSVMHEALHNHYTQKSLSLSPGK
light: SYELMQPPSVSVSPGQTARITCSGDALPKQYAYWYQQKPGQAPVLVIYKDSERPSGIPVRFSGSSSGTTVTLTITGVQAEDEADYYCQSADSSGTYVFGTGTKVTVLGQPKAAPSVTLFPPSSEELQANKATLVCLISDFYPGAVTVAWKADSSPVKAGVETTTPSKQSNNKYAASSYLSLTPEQWKSHRSYSCQVTHEGSTVEKTVAPTECS
notes: Member of group m19
**Q.** Which “EC50 (read off the curve)” value [3] does the source give for B8 here?
**A.** The value was ~2 nM.

B9: C28PB318.002 PSMA (A10v2) x CD28 (96 nM) (bispecific antibody)
scFv-Fc: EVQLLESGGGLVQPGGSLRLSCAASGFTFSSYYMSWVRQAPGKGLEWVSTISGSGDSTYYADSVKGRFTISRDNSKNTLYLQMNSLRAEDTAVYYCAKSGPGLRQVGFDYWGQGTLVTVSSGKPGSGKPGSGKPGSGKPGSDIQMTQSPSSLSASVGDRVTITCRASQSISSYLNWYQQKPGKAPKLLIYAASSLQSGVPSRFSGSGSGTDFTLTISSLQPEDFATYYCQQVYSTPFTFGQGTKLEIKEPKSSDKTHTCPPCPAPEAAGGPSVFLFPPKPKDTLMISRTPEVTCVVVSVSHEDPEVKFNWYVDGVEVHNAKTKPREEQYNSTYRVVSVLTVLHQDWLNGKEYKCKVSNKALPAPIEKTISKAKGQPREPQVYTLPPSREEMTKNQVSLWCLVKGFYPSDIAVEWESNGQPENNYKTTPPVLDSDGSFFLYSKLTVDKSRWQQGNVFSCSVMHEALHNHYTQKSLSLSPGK
heavy: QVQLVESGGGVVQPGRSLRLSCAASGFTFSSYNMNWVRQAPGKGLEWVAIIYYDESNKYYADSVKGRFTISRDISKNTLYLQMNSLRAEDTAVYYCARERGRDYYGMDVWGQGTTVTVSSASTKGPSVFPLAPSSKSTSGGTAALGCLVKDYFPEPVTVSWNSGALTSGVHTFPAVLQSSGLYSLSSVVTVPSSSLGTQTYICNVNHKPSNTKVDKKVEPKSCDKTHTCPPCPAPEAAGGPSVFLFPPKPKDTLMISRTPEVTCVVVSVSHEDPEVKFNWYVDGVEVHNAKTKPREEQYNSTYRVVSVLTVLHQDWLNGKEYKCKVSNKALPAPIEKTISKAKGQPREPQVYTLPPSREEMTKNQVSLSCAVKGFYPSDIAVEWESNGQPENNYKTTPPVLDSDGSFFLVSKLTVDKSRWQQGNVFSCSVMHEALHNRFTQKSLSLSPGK
light: SYELMQPPSVSVSPGQTARITCSGDALPKQYAYWYQQKPGQAPVLVIYKDSERPSGIPVRFSGSSSGTTVTLTITGVQAEDEADYYCQSADSSGTYVFGTGTKVTVLGQPKAAPSVTLFPPSSEELQANKATLVCLISDFYPGAVTVAWKADSSPVKAGVETTTPSKQSNNKYAASSYLSLTPEQWKSHRSYSCQVTHEGSTVEKTVAPTECS
**Q.** How did the “EC50 (read off the curve)” value [3] turn out when B9 was run?
**A.** The value was ~2 nM.

B10: C28PB294.002 PSMA (A10v2) x CD28 (37 nM) (bispecific antibody)
scFv-Fc: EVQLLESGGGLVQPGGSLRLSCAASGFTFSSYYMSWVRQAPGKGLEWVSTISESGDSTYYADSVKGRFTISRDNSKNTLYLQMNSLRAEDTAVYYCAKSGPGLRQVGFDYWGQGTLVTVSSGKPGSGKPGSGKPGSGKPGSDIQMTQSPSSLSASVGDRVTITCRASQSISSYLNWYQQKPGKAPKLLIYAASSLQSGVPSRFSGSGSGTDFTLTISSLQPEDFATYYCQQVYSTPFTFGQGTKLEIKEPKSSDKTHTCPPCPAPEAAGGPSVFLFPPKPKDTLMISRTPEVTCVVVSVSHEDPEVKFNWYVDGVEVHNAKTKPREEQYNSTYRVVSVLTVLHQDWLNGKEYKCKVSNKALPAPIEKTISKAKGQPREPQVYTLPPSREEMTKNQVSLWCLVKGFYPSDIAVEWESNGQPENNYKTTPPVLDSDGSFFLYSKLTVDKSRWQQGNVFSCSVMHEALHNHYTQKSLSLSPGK
heavy: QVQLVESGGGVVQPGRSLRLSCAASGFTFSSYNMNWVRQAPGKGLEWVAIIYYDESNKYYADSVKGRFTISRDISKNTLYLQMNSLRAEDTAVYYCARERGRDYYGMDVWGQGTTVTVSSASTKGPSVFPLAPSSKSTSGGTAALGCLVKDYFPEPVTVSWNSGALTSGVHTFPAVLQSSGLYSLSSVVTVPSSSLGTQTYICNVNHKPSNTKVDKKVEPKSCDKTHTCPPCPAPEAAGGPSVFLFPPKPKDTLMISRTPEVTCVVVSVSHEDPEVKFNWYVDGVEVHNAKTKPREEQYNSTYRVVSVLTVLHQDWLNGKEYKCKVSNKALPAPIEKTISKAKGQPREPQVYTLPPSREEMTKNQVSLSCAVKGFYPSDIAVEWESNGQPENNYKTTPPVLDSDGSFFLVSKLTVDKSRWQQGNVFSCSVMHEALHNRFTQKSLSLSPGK
light: SYELMQPPSVSVSPGQTARITCSGDALPKQYAYWYQQKPGQAPVLVIYKDSERPSGIPVRFSGSSSGTTVTLTITGVQAEDEADYYCQSADSSGTYVFGTGTKVTVLGQPKAAPSVTLFPPSSEELQANKATLVCLISDFYPGAVTVAWKADSSPVKAGVETTTPSKQSNNKYAASSYLSLTPEQWKSHRSYSCQVTHEGSTVEKTVAPTECS
**Q.** B10 was tested. Which “EC50 (read off the curve)” value [3] did it give?
**A.** The value was ~3 nM.

B11: C28PB330.002 PSMA (A10v2) x CD28 (180 nM) (bispecific antibody)
first monomer: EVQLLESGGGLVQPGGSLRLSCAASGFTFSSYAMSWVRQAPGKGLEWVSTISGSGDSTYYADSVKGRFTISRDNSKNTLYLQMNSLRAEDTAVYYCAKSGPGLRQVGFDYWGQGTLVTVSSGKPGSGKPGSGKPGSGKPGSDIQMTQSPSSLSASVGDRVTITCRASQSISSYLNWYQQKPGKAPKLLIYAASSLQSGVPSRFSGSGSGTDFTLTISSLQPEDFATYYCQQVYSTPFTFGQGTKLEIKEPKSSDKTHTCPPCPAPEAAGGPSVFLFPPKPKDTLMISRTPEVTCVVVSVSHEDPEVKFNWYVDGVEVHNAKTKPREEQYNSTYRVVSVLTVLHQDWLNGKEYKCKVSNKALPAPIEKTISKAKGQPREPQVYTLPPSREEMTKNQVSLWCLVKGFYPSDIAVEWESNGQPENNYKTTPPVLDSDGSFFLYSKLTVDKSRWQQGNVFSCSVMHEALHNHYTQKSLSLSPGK
second monomer: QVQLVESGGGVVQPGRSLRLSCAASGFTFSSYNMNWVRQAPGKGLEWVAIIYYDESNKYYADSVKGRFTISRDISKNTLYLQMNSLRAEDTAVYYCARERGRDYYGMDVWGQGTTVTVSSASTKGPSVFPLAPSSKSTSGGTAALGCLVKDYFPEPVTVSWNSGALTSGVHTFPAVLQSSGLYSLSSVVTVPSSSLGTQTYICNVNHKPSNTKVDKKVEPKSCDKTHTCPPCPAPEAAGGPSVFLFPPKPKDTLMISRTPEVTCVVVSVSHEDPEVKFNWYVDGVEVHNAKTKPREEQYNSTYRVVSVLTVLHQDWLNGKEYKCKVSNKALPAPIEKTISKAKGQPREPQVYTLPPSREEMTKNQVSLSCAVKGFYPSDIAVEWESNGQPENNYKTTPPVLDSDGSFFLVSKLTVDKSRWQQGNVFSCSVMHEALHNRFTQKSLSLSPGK
light chain: SYELMQPPSVSVSPGQTARITCSGDALPKQYAYWYQQKPGQAPVLVIYKDSERPSGIPVRFSGSSSGTTVTLTITGVQAEDEADYYCQSADSSGTYVFGTGTKVTVLGQPKAAPSVTLFPPSSEELQANKATLVCLISDFYPGAVTVAWKADSSPVKAGVETTTPSKQSNNKYAASSYLSLTPEQWKSHRSYSCQVTHEGSTVEKTVAPTECS
**Q.** B11 was tested. Which “EC50 (read off the curve)” value [3] did it give?
**A.** Its value is ~3 nM.

B12: XENP37902 (bispecific antibody)
heavy: EVQLVQSGAEVKKPGASVKVSCKTSGYTFTEYTIHWVRQAPGQSLEWMGNINPNNGGTTYNQKFQGRVTITVDKSTSTAYMELSSLRSEDTAVYYCAAGWNFDYWGQGTLVTVSSASTKGPSVFPLAPSSKSTSGGTAALGCLVKDYFPEPVTVSWNSGALTSGVHTFPAVLQSSGLYSLSSVVTVPSSSLGTQTYICNVNHKPSDTKVDKKVEPKSCDKTHTCPPCPAPPVAGPSVFLFPPKPKDTLMISRTPEVTCVVVDVKHEDPEVKFNWYVDGVEVHNAKTKPREEEYNSTYRVVSVLTVLHQDWLNGKEYKCKVSNKALPAPIEKTISKAKGQPREPQVYTLPPSREEMTKNQVSLTCDVSGFYPSDIAVEWESDGQPENNYKTTPPVLDSDGSFFLYSKLTVDKSRWEQGDVFSCSVMHEALHNHYTQKSLSLSPGK
scFv-Fc: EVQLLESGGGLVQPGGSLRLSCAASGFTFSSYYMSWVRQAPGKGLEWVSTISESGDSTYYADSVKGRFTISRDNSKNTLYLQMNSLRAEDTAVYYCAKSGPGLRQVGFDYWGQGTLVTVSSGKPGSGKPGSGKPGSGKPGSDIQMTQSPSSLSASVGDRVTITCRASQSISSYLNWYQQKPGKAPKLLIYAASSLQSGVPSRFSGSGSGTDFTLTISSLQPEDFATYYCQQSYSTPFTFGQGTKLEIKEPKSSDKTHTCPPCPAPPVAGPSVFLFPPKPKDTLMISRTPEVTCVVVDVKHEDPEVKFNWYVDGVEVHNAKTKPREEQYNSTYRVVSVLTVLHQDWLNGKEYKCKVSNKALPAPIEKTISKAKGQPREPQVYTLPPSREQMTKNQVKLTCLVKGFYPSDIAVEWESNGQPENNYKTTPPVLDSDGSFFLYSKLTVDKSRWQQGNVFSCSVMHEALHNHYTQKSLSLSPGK
light: DIVMTQSPDSLAVSLGERATLSCRASQDVGTAVDWYQQKPDQSPKLLIYWASTRHTGVPDRFTGSGSGTDFTLTISSLQAEDVAVYFCQQYNSYPLTFGAGTKVEIKRTVAAPSVFIFPPSDEQLKSGTASVVCLLNNFYPREAKVQWKVDNALQSGNSQESVTEQDSKDSTYSLSSTLTLSKADYEKHKVYACEVTHQGLSSPVTKSFNRGEC
notes: 1+1 Fab-scFv-Fc format; also called prototype PSMA x CD28 bsAb; 1A7_H1.14_L1
**Q.** B12 was tested. Which Kd [4] did it give?
**A.** Its Kd is 230 nM.

B13: XENP37903 (bispecific antibody)
heavy: EVQLVQSGAEVKKPGASVKVSCKTSGYTFTEYTIHWVRQAPGQSLEWMGNINPNNGGTTYNQKFQGRVTITVDKSTSTAYMELSSLRSEDTAVYYCAAGWNFDYWGQGTLVTVSSASTKGPSVFPLAPSSKSTSGGTAALGCLVKDYFPEPVTVSWNSGALTSGVHTFPAVLQSSGLYSLSSVVTVPSSSLGTQTYICNVNHKPSDTKVDKKVEPKSCDKTHTCPPCPAPPVAGPSVFLFPPKPKDTLMISRTPEVTCVVVDVKHEDPEVKFNWYVDGVEVHNAKTKPREEEYNSTYRVVSVLTVLHQDWLNGKEYKCKVSNKALPAPIEKTISKAKGQPREPQVYTLPPSREEMTKNQVSLTCDVSGFYPSDIAVEWESDGQPENNYKTTPPVLDSDGSFFLYSKLTVDKSRWEQGDVFSCSVMHEALHNHYTQKSLSLSPGK
scFv-Fc: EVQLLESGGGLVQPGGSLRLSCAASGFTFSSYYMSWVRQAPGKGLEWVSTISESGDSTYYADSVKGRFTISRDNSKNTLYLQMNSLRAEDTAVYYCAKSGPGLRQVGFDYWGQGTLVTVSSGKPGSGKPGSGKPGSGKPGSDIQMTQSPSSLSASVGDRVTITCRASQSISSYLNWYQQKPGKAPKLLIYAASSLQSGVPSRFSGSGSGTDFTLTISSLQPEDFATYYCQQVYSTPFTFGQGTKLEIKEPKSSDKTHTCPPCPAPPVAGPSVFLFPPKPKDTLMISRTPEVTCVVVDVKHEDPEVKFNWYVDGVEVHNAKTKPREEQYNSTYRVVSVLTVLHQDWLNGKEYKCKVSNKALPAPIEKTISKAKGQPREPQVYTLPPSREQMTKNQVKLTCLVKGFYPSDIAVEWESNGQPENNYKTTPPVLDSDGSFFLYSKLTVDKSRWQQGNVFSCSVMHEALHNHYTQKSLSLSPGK
light: DIVMTQSPDSLAVSLGERATLSCRASQDVGTAVDWYQQKPDQSPKLLIYWASTRHTGVPDRFTGSGSGTDFTLTISSLQAEDVAVYFCQQYNSYPLTFGAGTKVEIKRTVAAPSVFIFPPSDEQLKSGTASVVCLLNNFYPREAKVQWKVDNALQSGNSQESVTEQDSKDSTYSLSSTLTLSKADYEKHKVYACEVTHQGLSSPVTKSFNRGEC
notes: 1+1 Fab-scFv-Fc format; also called prototype PSMA x CD28 bsAb; 1A7_H1.14_L1.71
**Q.** With B13 as the binder, how does the Kd [4] read?
**A.** Its Kd is 37 nM.
